Results taken from the DeepSol protein solubility set.

test: soluble on expression in E. coli; label from the status in PepcDB or PDB records

Sequence | soluble on expression in E. coli
MGSDKIHHHHHHMSYWIQISNNVRYSNTFEPVCQPGATREERSTTDPGGVGTVPAIHGASNLNIIPIMRARRASITWPSEGLTRVPYALFQDEGVYADEQDAIFRGPNWSYLCLEAEVPNQGDFRSTFVGDAPVVVTRDTDGEIYAFENRCAHRGAMVCLEDQGNARDFSCVYHAWTYSLQGDLVGVAFKDGIDGKGGMKPDFCTGDHGLRKLRVATLHGLVFGSFSDDVPPLDEYLGEEIVERIARVLENRKPVVLGRFTQMLPNNWKLYFENVKDSYHASILHLFFTTFQLNRLSQRGGIIVDPSGGHHVSYSAVDHAAEAAAQRKATSDYADQKIRSESEHRLEDTSVLAGVDEFGDGVTLQILSVFPGFVLQQIQNAIAVRQILPRGTQQTELNWTYLGFEDDTPELREMRLRQSNLVGPAGYVSMEDGCVGGFVQRGIEGAGDGRSVIEMGGDSAESSASRVTEASIRGFWKAYRNAMGY | not soluble
MGSDKIHHHHHHMNEKTTTAQKGAPRARVSATRVRSASRTPHATTVNPADLTVHNHPLARRHYRVATAAIEGFVDLVEHCVRVLIPGALIYARPRMGKTHAIDYLALHLGRNRGDILVLRMSCEYHRTDYEGAFFSALLSAAGIRDPQPRFIADKRFALMRRINEQLQMRSGHIVVLFCDEAQRLSKHALEWLRDVHDQLAHHGVRLITFLVGQPQLMEQKAQYQLSGDEQIVARFMIEQLHFRGITGAVEAATCLASYDMTRYPEDTGSTFTAFFYPDAYAAGLRLEQSAAALWNGFVNAHKVAQLAGPIELHMDYFSRAVESVLLNGPQWDSAGLVLDSAYWERAVRESGYVAAQQTVQPEV | not soluble
MSLKVHLNYETGPEHWADLQSRLAPGIRLSSGECRPANGFDILVSGEPTLEELEGNGRLRAVIVPWVGVPLATLDRMKEFPSIALHNLPYNIGPTAEMAVALLLAAAKRIVPYDQRLRRGYWSGEHTGVPGSVMLDGGLAVILGYGRIGRRVAAACRGLGMRIAGVRRNPGTSDEEYALADLSGLLPQAAALIVCLPHTHQTDRLIGSRELERLPSNAVLVNVARGGIVNEEALYRTLQARRIYAAGIDVWYRYPSATERKQGLPHPPSSFPFHTLDNVVMSPHRAGWSEEKEPARIAELANMLNAAARGEGHHHHHH | not soluble
MSLTMREVAKAAGVSIKTVSNVVNDYEFVSQATRDKVNKAIAELGYTVNVSARNLRRGQTGIIGLAIPDLQMPYFAQLSSLVIEEAKKVGLRVIVEPTQYSRDGELEALHGSQQMMIDGLIYSPLELGQDDVEQLKVDYPLVLVGERIFTDQVDHIATENVEGAKRATQYLLTTGCRRVAVVGVHPGEKVGSAALRYQGYLEALEEAGVEFDDRLVVESGMWHRSDGVRAMNALLDSGVEVDGVVALNDMLASGVMHAIQMHGLHIPDDISVVGFDNSDDSQYLSPALTSIAPGLEAVARLSVKVLKERIDGRDPNADRPGEKVFRKVASSLVVRQSTEGHHHHHH | soluble
MSKAAKKKSSKKRSGSEAAQFDQKTIQEFKEAFGIMDQNKDGIIDKSDLKDLYASMGQIAPDSQIDAMIKEASGPINFTVFLTLFGERLTGTDPEATIVGAFAMFDKKDCGKIKEDDLIKILQNKRGEPLDEDEVKAMYKGKPPIEGGEVDYKAFAHLITTGAQDELASA | not soluble
RIEDIETKNIQYEERVSVQADLGSQTLHVRGLIDSGNQLYDPLTKTPVMIIYIDKLEPIFGTAETMIIRNTDPLEAIEQLDDSFRFLDKMRLIPYRGVGQQNQFLLCVKPDHVTIMTKEEMISADKCLIGISTTKLSADGEFDAIIHPKMLSGKAVKHVS | soluble
MFSLSKTLAALLLCSAASLAQAAETAICYNCPPEWADWGTQLKAIADSTSVQVPLDNKNSGQALAQIVAEQAAPVADVVYYGVTFGLQAQKAGVVDTYKPKHWDDIPAGLKDPQGHWFAIHSGTLGIMVNVDALGGLPVPQSWADLLKPEYKGMVGYLDPSSAFVGYVSAVAINQAMGGSLDNFGPAIDYFQKLAKNSPIVPKQTAYARALSGELPILVDYDFNAYRARYKDKANVAFVIPKEGTIGVPYVMSMVAKAPHRANAEKVLDFVLSDAGQALWAKAYLRPVRSKMPADVAAQFLPDSDYARAGVVDYQRMAAVQEAFAARYLREVK | not soluble
MGSDKIHHHHHHMKKLFMSEYLNYVFQKKVWIVENIYMIKIMQLYYSSYNKKFISHTFFTDAIKNSSFPIFLNYVNNLNDKILYHSQVHGVKHILNVTFFSFLIACNENMSANDMGILLETALYHDIGRDDDMEDSDHGHRGAKKILMHISDNKMDMIIPAVIHAHSLLDEEAYQIFRQYNIEKSQYARYSKILSIIKDADALDRFRLRPNSLNPEYFRIDFSKILISLACVLSKVEWHE | not soluble
MSLNNQDISIGKLSRLKIWITDNHLSDDQWSNTKKFIIIKITTEDGIEGWGEAFSINFREKGIAIIIKELFREISNIPNLSIKSFYNKISLLSDGHRGLDFSSATSAIEIALWDISGKLKNLPLNSLLTKSPKPNVPIYATCWSDLKKDTNDYLRQIEKFYGKKYGGIKIYPMLDSLSISIQFVEKVREIVGDELPLMLDLAVPEDLDQTKSFLKEVSSFNPYWIEEPVDGENISLLTEIKNTFNMKVVTGEKQSGLVHFRELISRNAADIFNPDISGMGGLIDIIEISNEASNNGIFISPHCWNSMSVSASAMLHVCSSIPNSEKAEIFPDYINFSKKFCELPFDIIDNKAHINKSAGLGIVIHEDILSELSIYSLDEKSNDEGHHHHHH | soluble
MGSDKIHHHHHHMQDIDDFLRQHRITEVEAIIPDMAGIARGKIIPRNKFETGESMRLPQAVMVQTVTGDYPEDGTLTGVTDPDMVCVADASTICLIPWAVDPTAQVIHDCVHFDGSPVEISPRYVLRRVLDLYRARGWKPVVAPELEFYLVDMNKDPDLPLRPPVGRTGRAETGRQSYSIEAVNEFDPLFEDIYEYCELQGLDIDTLIHEVGAAQMEINFLHGDALSLADQVFLFKRTVREAALRHNMYATFMAKPMESEPGSAMHIHQSVVDIETGRNLFIGASGDVTPMFRSYLAGLQKYTPALMPIFAPYINSYRRLSRFMAAPINVQWGYDNRTVGFRIPHSAAAARRIENRIPGVDCNPYLAIAGTLAAGYLGVTQGLEPTEPLASDGYSLPYQLPRNLEEGLTLMSACAPLAEMLGEKFVKAYLALKETEYEAFFRVISSWERRHLLLHV | not soluble
MSMMDKTVLYFGLVEISFDVPDFIFQKIKEQNNKIRYYSKSINILGSVKFINSNQQFIEYDGNGNILVYGRLKYFKEGISLYYIGEYLAECLLIEHSDTLLIHAAAVYNPLSGHSILLLGDKGAGKTTVAIRLCIEHGYHLIGNDQVIFGSNSGILLTYAGTSFFKIRRTAVLSDNLLFKLFSKFFNRSLQFNKASWDDKISIFPKELGIRTCNFSTEISKIYYIKTDKKEKQIYHSIWSDSLASLYLNELLGRHISGQVACFQSDNGKYFSTMPLINYEKNNRVREQIVKGIFAKQKLFKITAATPAKIAEAIIENVKKNS | not soluble
MGSDKIHHHHHHMEMNDTRRRLIELIAEHHASHPGKKLGIEELSRRAGISRQSFNRYYKDLTDYAAGRKLIGDLVDDTTNAQTKQLINQQQEVMRDLQEQVEHSEIENAKKLKKAMDSYVTSLMVNDLTAHAANSLRITLEKQTVHNLQLKQELTNMEVSLAKAQANAATLAISPTPREGKGEKVKLDVDLSKAVAAFSATKSEDDFEDKKEIALKSLVQSICKLALESKCSIVLFAERYVSRFSSFYDNFSCPDDGLHIIARLPVFYRSELRTFIDKLPPTQNISLYIPYLESASEKKAQRSFYFNSIPKCELDSADEADVIPMTLGLDRIIQFRVKQGD | not soluble
MLTYQVKQGDTLNSIAADFRISTAALLQANPSLQAGLTAGQSIVIPGLPDPYTIPYHIAVSIGAKTLTLSLNNRVMKTYPIAVGKILTQTPTGEFYIINRQRNPGGPFGAYWLSLSKQHYGIHGTNNPASIGKAVSKGCIRMHNKDVIELASIVPNGTRVTINR | soluble
MGSDKIHHHHHHDNAGRVVEITSAPERVVSLSPAATRFLVFLGLEDKIVGVTDYDSYEAEKVGAMVPVNIEKVVSLNPDLVLMFGGFQLPEVPKLEKAGLKVLVVNPNSLNDIIRDVVLLGTIFDRRDLALEKSEKLREKMLEIGKKTYNVPPSKRPKVLYLISSPGPDVKEIWTCGMGSYLNEIISLAGGVNIASGIAGPNGWPQLSIEYVVSQNPDVIIVGVYIPGTENEEIKKILNFEPFKEINAVKNKRVFAVDGNVASQPSPDVFELLDLFYEFFYGGKGE | not soluble
MKGFIDDANYSVGLLDEGTNLGNVIDNYVYEHTLTGKNAFFVGDLGKIVKKHSQWQTVVAQIKPFYTVKCNSTPAVLEILAALGTGFACSSKNEMALVQELGVSPENIIFTSPCKQVSQIKYAAKVGVNIMTCDNEIELKKIARNHPNAKVLLHIATEDNIGGEDGNMKFGTTLKNCRHLLECAKELDVQIIGVKFHVSSACKEYQVYVHALSDARCVFDMAGEFGFTMNMLDIGGGFTGTEIQLEEVNHVISPLLDIYFPEGSGIQIISEPGSYYVSSAFTLAVNIIAKKVVENDKFSSGVEKNGSDEPAFVYYMNDGVYGSFASKLSEDLNTIPEVHKKYKEDEPLFTSSLWGPSCDELDQIVESCLLPELNVGDWLIFDNMGADSFHEPSAFNDFQRPAIYFMMSFSDWYEMQDAGITSDAMMKNFFFAPSCIQLSQEDSFSTEA | soluble
MSVNSIYTDREEIDSEFEDEDFEKEGIATVERAMENNHDLDTALLELNTLRMSMNVTYHEVRIATITALLRRVYHFIATQTLGPKDAVVKVFNQWGLLFKRQAFDEEEYIDLMNIIMEKIVEQSFDKPDLILFSALVSLYDNDIIEEDVIYKWWDNVSTDPRYDEVKKLTVKWVEWLQNADEESSSEEE | soluble
MGSDKIHHHHHHMCRILGYLGTPVLLEDLLYAPDSSLLNQTIGAQMLQMLNLAGFGMAAWDPASHDPHLPFRYRTTQVALFDRNLKALAGKLRPGALLAHIRGVPYNSTVQINEQNCHPFRFEGVPLAMAHNGDLAGFREMRFDLAPHVRPEFARQIQGSTDSEWIYALAVSALDDPAGVNEPDAILAAIRRALSILRDARARHGITRSSSTNLMFCDGVNLVAVRFTFDFGRFDAGKLQGTTEYLSMWYTFGRDYGLHDGEWKLTGGAASADSVMVASEPLTRDFATWIEVPEYSALIVRHEGARRRAEIHALEV | not soluble
MFRLEDFNFHNKTVFLRVDLNSPMKDGKIISDARFKAVLPTIRYLIESGAKVVIGTHQGKPYSEDYTTTEEHARVLSELLDQHVEYIEDIFGRYAREKIKELKSGEVAILENLRFSAEEVKNKPIEECEKTFLVKKLSKVIDYVVNDAFATAHRSQPSLVGFARIKPMIMGFLMEKEIEALMRAYYSKDSPKIYVLGGAKVEDSLKVVENVLRRERADLVLTGGLVANVFTLAKGFDLGRKNVEFMKKKGLLDYVKHAEEILDEFYPYIRTPVDFAVDYKGERVEIDLLSENRGLLHQYQIMDIGKRTAEKYREILMKARIIVANGPMGVFEREEFAIGTVEVFKAIADSPAFSVLGGGHSIASIQKYGITGITHISTGGGAMLSFFAGEELPVLRALQISYEKFKEVVK | soluble
MAPTTVIADNNCNEESSNSFEMEIEAESAILEQIQNKMAKNLESAAYVPPTEEEQKAIDAKSVFIGNVDFNSTIEEVEEHFKGCGHIVRTTIPKDKFTKKQKNFAYIEFDDSSSIENALVMNGSLFRSRPIVVTAKRTNIPGMGHGVRGSSRGTFGRGRGAARGAPGRQQTVVVKYVYVNGPNRGGRGGRGRRFNPY | soluble
HDFASWVSGDSMEPKYHNGSVTLIRETGFDYDGAVYAVVCNSQTYIKRVYLEAEGLRLKYKDIFISYDEDPRVVRIIIGNFIPL | not soluble
